Patent US20250011406A1

How the values were obtained:
[1] = target: PfCSPm (PfCSP_SAmut_C5S), stabilized mutant form of PfCSP (Plasmodium falciparum) (UniProt Q7K740); test: ITC, two-site model
[2] = target: PfCSPm (PfCSP_SAmut_C5S), stabilized mutant form of PfCSP (Plasmodium falciparum) (UniProt Q7K740); test: ITC, antibody titrated into PfCSPm; first site
[3] = target: PfCSPm (PfCSP_SAmut_C5S), stabilized mutant form of PfCSP (Plasmodium falciparum) (UniProt Q7K740); test: ITC, antibody titrated into PfCSPm; second site
[4] = target: PfCSPm (PfCSP_SAmut_C5S), stabilized mutant form of PfCSP (Plasmodium falciparum) (UniProt Q7K740); test: ITC, antibody titrated into PfCSPm, pH 7.4, 25 C, two sets of sites; second site
[5] = target: PfCSPm (PfCSP_SAmut_C5S), stabilized mutant form of PfCSP (Plasmodium falciparum) (UniProt Q7K740); test: ITC, antibody titrated into PfCSPm, pH 7.4, 25 C, two sets of sites; first (junctional) site
[6] = target: PfCSPm (PfCSP_SAmut_C5S), stabilized mutant form of PfCSP (Plasmodium falciparum) (UniProt Q7K740); test: ITC
[7] = target: PfCSPm (PfCSP_SAmut_C5S), stabilized mutant form of PfCSP (Plasmodium falciparum) (UniProt Q7K740); test: ITC, two-site model [lower table]

Substance	-TΔS1 [1] [kcal/mol]	-TΔS2 [1] [kcal/mol]	ΔG1 [1] [kcal/mol]	ΔG2 [1] [kcal/mol]	ΔH1 [1] [kcal/mol]	ΔH2 [1] [kcal/mol]	stoichiometry [2]	stoichiometry [3]	Kd [4] [nM]	Kd [5] [nM]	Kd [6] [nM]	change in ΔG [6] [kcal/mol]	fold affinity increase over mature CIS43 [6] [fold]	-TΔS1 [7] [kcal/mol]	-TΔS2 [7] [kcal/mol]	ΔG1 [7] [kcal/mol]	ΔG2 [7] [kcal/mol]	ΔH1 [7] [kcal/mol]	ΔH2 [7] [kcal/mol]
mature CIS43 antibody (IgG)	13.4	0.9	-10.6	-9.8	-24	-10.7	2.4	5.8	63	18									
mature CIS43 with L98I in the heavy chain (antibody)											11	0.2	1.6	8.8	-0.9	-10.8	-10.2	-19.6	-9.3
